Results on 1 sequence are retold here after PMC6911004, “Fragment-based screening identifies molecules targeting the substrate-binding ankyrin repeat domains of tankyrase” (Scientific Reports, 2019).

The assay has as its target T1, TNKS2 ARC1 (Homo sapiens, UniProt Q9H2K2).
T1 construct: TNKS2 ARC1 (20–178); His6-GST; made in house; host or cells: E. coli
T1 sequence (Q9H2K2 whole entry, looked up): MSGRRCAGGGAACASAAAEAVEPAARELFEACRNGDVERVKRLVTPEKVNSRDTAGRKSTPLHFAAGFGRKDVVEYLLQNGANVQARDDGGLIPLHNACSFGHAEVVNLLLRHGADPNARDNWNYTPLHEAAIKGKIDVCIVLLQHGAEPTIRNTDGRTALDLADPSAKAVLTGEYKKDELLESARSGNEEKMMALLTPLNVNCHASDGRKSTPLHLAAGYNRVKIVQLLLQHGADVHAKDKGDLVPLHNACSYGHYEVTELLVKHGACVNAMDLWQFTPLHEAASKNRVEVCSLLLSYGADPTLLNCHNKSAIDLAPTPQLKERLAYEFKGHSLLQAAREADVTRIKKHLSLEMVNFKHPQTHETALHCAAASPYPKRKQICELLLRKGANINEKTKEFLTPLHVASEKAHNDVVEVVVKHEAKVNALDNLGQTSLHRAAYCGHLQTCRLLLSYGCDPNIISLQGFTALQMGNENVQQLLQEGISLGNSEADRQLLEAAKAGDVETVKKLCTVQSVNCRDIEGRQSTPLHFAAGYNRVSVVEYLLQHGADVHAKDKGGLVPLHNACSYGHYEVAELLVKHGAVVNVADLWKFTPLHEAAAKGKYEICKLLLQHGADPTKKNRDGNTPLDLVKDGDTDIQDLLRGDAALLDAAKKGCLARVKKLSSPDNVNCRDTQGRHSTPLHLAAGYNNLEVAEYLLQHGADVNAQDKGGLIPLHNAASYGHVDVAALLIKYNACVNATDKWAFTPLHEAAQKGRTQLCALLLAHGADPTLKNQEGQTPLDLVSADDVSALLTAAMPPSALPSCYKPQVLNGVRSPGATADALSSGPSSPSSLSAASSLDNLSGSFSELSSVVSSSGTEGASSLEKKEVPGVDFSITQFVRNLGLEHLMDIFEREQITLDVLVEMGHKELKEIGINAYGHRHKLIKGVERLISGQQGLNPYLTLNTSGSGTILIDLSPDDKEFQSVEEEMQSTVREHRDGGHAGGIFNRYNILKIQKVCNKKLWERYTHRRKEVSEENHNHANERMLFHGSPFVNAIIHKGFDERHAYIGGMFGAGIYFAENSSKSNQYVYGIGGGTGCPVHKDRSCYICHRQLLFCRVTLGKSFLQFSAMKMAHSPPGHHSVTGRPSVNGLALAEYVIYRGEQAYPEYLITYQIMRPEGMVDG
Put plainly: Differential scanning fluorimetry (DSF). Type of assay: binding. Conditions: ARC 20 μM + 3BP2 TBM peptide 200 μM, inflection point method. The protocol: For the experiment shown in Fig. 2A, ARC and 3BP2 TBM peptide concentrations were 20 and 200 μM, respectively, in 50 mM HEPES-NaOH pH 7.5, 100 mM NaCl, 2 mM TCEP and a total volume of 25 μL. SYPRO Orange was added at 5×. Data were recorded from 4–95 °C, with the temperature ramped by 0.5 °C every 15 s, using a CFX384 thermal cycler (Bio-Rad). Data were analysed by non-linear regression in GraphPad Prism using a Boltzmann sigmoid with linear baselines. ΔTm values were determined using the inflection point method.

Take “LPHLQRSPPDGQSFRSW [3BP2 16-mer peptide, 16-mer TBM peptide derived from 3BP2, W added for A280, N-terminus acetylated, C-terminus amide-capped; positive control, reference compound]”: the ΔTm was found to be 1.34 °C.

What is called ΔTm is the shift of the melting midpoint relative to a reference.
